Reference: paper PMC8160739, “Mycobacterium tuberculosis Binds Human Serum Amyloid A, and the Interaction Modulates the Colonization of Human Macrophages and the Transcriptional Response of the Pathogen” (Cells, 2021)

Assays:
Details in all cases: both partners purified
[1] = target: T1, recombinant Mycobacterium tuberculosis rTB18.6 (Mycobacterium tuberculosis H37Rv, UniProt P9WFN1 1-176); experiment: far-Western, overlay or dot blot; recombinant Mtb proteins separated by reducing SDS-PAGE (12% gel), transferred to nitrocellulose, incubated 2 h at room temperature with biotin-labeled SAA1 at 10 µg/mL in PBS/0.05% Tween 20/0.1% BSA; streptavidin-peroxidase detection
T1 construct: also called pHis-tb18.6 product
T1 sequence: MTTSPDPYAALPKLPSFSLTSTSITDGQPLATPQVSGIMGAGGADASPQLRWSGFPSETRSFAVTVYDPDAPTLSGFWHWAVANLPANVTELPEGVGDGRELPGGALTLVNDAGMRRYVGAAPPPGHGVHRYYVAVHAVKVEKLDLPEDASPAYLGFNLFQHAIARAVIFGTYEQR

[2] = target: T2, recombinant Mycobacterium tuberculosis rThiC (Mycobacterium tuberculosis H37Rv, UniProt P9WG79 1-547); experiment: as above
T2 construct: also called pHis-thiC product

[3] = target: T3, recombinant Mycobacterium tuberculosis rAtpA (Mycobacterium tuberculosis H37Rv, UniProt P9WPU7 1-549); experiment: as above
T3 construct: also called pHis-atpA product

[4] = target: T4, recombinant Mycobacterium tuberculosis rEspB (Mycobacterium tuberculosis H37Rv, UniProt P9WJD9 1-460); experiment: as above
T4 construct: also called pHis-espB product

[5] = target: T1, recombinant Mycobacterium tuberculosis …; experiment: SPR; Biacore X, CM5 chip; human SAA1 amine-coupled (7850 RU), BSA chip as control and blank; native recombinant Mtb proteins as analytes; 22-25 °C; HBS-EP pH 7.4 (0.01 M HEPES, 0.15 M NaCl, 3 mM EDTA, 0.005% P20); flow 5 or 20 µL/min; global fit, Langmuir 1:1 with drifting baseline
[6] = target: T2, recombinant Mycobacterium tuberculosis …; experiment: as above
[7] = target: T3, recombinant Mycobacterium tuberculosis …; experiment: as above
[8] = target: T4, recombinant Mycobacterium tuberculosis …; experiment: as above
[9] = target: T5, recombinant Mycobacterium tuberculosis rABC (Mycobacterium tuberculosis H37Rv, UniProt P9WQK3 1-558); experiment: as above
T5 construct: also called rABC transporter; pHis-abc product
T5 sequence: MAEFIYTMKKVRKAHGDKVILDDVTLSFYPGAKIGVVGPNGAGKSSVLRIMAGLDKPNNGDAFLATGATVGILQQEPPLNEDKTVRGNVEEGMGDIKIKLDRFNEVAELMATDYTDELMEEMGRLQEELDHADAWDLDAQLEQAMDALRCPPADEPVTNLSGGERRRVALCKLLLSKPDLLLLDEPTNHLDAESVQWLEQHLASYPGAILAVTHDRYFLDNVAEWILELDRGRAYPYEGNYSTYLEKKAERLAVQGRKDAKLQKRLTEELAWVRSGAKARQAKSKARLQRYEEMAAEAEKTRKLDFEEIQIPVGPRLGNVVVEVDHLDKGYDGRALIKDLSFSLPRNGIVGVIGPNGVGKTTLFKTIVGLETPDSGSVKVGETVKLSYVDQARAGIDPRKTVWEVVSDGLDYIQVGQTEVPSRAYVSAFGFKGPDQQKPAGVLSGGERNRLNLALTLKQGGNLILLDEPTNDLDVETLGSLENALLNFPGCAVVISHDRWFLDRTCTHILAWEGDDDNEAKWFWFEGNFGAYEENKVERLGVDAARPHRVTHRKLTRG

T2 sequence (P9WG79 whole entry): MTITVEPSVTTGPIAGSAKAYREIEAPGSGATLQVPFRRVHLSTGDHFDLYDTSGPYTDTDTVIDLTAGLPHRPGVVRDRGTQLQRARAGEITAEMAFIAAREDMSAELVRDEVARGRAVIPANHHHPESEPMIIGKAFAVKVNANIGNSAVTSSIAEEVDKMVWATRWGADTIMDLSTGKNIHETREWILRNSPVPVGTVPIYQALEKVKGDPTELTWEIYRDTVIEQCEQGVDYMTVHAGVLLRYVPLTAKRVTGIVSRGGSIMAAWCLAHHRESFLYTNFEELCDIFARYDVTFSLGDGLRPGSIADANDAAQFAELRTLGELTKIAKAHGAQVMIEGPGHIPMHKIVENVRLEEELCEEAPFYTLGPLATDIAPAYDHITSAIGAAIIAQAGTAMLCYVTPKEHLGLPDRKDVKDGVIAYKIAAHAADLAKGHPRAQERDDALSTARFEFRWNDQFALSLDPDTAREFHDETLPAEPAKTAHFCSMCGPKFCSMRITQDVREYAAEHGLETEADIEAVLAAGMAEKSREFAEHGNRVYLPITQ
T4 sequence (P9WJD9 whole entry): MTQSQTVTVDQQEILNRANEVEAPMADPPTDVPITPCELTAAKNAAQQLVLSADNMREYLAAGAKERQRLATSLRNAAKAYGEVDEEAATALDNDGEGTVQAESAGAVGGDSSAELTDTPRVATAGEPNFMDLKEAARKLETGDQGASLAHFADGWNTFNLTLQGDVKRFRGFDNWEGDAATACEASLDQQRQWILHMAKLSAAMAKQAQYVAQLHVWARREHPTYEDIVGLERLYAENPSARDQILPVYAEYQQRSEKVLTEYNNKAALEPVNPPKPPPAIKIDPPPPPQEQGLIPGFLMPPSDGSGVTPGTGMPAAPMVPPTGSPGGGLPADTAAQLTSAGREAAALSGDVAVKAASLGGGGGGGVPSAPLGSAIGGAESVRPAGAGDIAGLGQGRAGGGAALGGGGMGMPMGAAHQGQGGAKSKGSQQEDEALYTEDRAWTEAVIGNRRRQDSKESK
T3 sequence (P9WPU7 whole entry): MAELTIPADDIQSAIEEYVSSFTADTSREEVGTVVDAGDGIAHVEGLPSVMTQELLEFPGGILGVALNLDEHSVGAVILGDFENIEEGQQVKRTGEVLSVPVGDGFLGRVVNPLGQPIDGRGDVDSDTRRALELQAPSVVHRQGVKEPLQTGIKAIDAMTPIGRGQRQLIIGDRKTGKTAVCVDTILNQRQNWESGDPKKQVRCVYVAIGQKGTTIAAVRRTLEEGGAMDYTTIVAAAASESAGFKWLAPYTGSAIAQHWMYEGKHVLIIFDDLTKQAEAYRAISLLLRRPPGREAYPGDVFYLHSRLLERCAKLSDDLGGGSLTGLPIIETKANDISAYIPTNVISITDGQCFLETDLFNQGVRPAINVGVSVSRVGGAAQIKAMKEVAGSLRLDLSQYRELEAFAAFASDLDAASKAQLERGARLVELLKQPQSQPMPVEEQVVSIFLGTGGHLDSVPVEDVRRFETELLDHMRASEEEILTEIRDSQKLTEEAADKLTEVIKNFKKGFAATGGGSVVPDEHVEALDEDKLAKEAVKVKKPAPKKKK

B1: biotin-labeled recombinant human SAA1 (natural protein, UniProt P0DJI8 19-122, looked up)
chain: RSFFSFLGEAFDGARDMWRAYSDMREANYIGSDKYFHARGNYDAAKRGPGGAWAAEVITDARENIQRFFGHGAEDSLADQAANEWGRSGKDPNHFRPAGLPEKY
modifications: biotin (Sulfo-NHS-biotin labeling; sites not stated)
notes: serum amyloid A1 (SAA1), human, recombinant, bought from Sigma Aldrich; Same bought protein as m1, biotinylated; detected with streptavidin-HRP; also called biotinylated SAA1; biotin-labeled human SAA1; source: bought: Sigma Aldrich (recombinant), labeled with EZ-Link Micro Sulfo-NHS-Biotinylation Kit
binding result [1]: binds | binding result [2]: binds | binding result [3]: binds | binding result [4]: binds

B2: recombinant human serum amyloid A (SAA1) (natural protein, UniProt P0DJI8 19-122, looked up)
chain: RSFFSFLGEAFDGARDMWRAYSDMREANYIGSDKYFHARGNYDAAKRGPGGAWAAEVITDARENIQRFFGHGAEDSLADQAANEWGRSGKDPNHFRPAGLPEKY
notes: serum amyloid A1 (SAA1), human, recombinant, bought from Sigma Aldrich; also called human SAA1; human acute phase protein; source: bought: Sigma Aldrich (recombinant)
Kd [5]: 8.5 µM | Kd [6]: 7.53 µM | Kd [7]: 0.194 µM | Kd [8]: 5.06 µM | Kd [9]: 11.3 µM
